Our source for the EC50 values is patent US20240165253A1 (REMEGEN, published 2024).

By EC50 is commonly meant the concentration needed to bring the measured effect to its halfway point. Low values mean an effect from little substance, high ones a need for much substance.

For one assay, the target named is T1, c-Met protein (UniProt P08581 25-932, limits assumed).
T1 construct: The construct is not described; also called c-Met antigen
The assay can be described thus: ELISA, plate coated with c-Met protein at 2 ug/ml, HRP detection antibody. As to the method: The c-Met protein was prepared with a diluent to a final concentration of 2 μg/ml, and added to a microplate at 100 μl per well, overnight at 4° C. The solution in the well was discarded, and the plate was washed three times with PBST. The plate was added with a blocking solution at 300 μl/well and incubated at 37° C. for 2 h. The solution in the well was discarded, and the plate was washed three times with PBST. […] The solution in the well was discarded, and the plate was washed three times with PBST. HRP detection antibody was prepared by adding diluent at a dilution of 1:5000, added at 100 μl per well, and incubated at 37° C. for 1 h. The solution in the well was discarded, and the plate was washed three times with PB ST. The plate was added with TMB color developing solution, incubated at room temperature for 2 min, and then added with Elisa stop solution.

The next assay addresses T2, soluble ED protein (UniProt P08581 25-932, limits assumed).
T2 construct: domain: ED; It is read here as the c-Met extracellular domain because the antibodies are anti-c-Met
The assay can be described thus: ELISA, plate coated with soluble ED protein, HRP anti-human IgG Fc detection. Here is the method:
The affinities of chimeric cAAJ8D6 and the humanized antibody AAJ8D6 were determined by ELISA. A 96-well plate was coated with soluble ED protein and then incubated with diluted antibodies. ED-related antibodies were detected with an HRP-conjugated goat F(ab′)2 anti-human IgG Fc-specific secondary antibody.
For orientation: In an ELISA, binding on a coated surface is turned into a signal by an enzyme label.

T1 sequence (P08581 25-932 limits assumed): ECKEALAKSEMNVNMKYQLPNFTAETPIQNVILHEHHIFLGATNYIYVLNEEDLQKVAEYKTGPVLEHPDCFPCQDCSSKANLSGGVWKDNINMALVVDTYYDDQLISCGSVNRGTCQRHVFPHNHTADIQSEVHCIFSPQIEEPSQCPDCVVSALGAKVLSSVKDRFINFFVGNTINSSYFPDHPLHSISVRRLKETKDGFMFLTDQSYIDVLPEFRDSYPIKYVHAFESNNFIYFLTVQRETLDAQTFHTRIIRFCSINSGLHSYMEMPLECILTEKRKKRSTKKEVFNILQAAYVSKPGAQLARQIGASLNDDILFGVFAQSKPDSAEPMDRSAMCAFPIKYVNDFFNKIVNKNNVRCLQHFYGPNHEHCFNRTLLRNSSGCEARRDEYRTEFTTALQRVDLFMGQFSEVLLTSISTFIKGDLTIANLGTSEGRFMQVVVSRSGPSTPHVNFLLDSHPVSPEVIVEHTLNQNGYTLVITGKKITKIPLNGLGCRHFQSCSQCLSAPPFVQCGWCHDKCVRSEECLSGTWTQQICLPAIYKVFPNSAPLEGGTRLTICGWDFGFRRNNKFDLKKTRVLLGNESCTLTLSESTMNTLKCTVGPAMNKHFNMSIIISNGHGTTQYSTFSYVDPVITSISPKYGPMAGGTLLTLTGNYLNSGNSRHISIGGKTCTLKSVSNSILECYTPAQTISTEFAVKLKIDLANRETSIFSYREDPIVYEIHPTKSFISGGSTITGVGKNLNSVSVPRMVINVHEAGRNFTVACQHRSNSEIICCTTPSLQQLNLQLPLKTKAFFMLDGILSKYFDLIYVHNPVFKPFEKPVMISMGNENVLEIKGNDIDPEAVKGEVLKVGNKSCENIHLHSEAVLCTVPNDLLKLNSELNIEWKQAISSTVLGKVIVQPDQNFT
T2 sequence (P08581 25-932 limits assumed): as above

B1: anti-c-Met humanized antibody AAJ8D6 (antibody, human IgG1, kappa, V domains shown)
VH: QVQLEQSGPEVVKPGASVKVSCKASGYSFTSYWMHWVRQAPGQGLEWMGMIDPSDSESRLNQKFKDRVTMTVDTPTSTVYMELSSPRSEDTAVYYCARSGYHGTSYWYFDVWGQGTLVTVSS
VL: DIVMTQSPLSLPVTPGEPASISCRSSKSLLHSDGITYLYWYLQKPGQSPQLLIYQMSNLASGVPDRFSGSGSGTDFTLKISRVEAEDVGVYYCAQNLELPPTFGGGTKVEIKR
notes: also called AAJ8D6 antibody
For the molecule B1, the figures for the EC50 with c-Met protein and in the assay with soluble ED protein were 0.54 ng/mL and 3.53 ng/mL, respectively.

B2: ABT-700 (telisotuzumab) (antibody, V domains shown)
VH: QVQLVQSGAEVKKPGASVKVSCKASGYIFTAYTMHWVRQAPGQGLEWMGWIKPNNGLANYAQKFQGRVTMTRDTSISTAYMELSRLRSDDTAVYYCARSEITTEFDYWGQGTLVTVSS
VL: DIVMTQSPDSLAVSLGERATINCKSSESVDSYANSFLHWYQQKPGQPPKLLIYRASTRESGVPDRFSGSGSGTDFTLTISSLQAEDVAVYYCQQSKEDPLTFGGGTKVEIKR
In turn, B2 displayed an EC50 with c-Met protein of 1.33 ng/mL.
